Assay results: the supplement of paper PMC7125110
± gives the standard error. This sample holds only a part of the variants without activity.

B1: glmS ribozyme (parent)
chain: AUAAAAGCGCCAGAACUACAGAAAUGUAGUUGACGAGGAGGAGGUUUAUCGAAUUUUCGGCGGAUGCCUCCAAA

Columns and labels:
Conditions in all cases: with glucosamine-6-phosphate
glucosamine-6-phosphate [1] = variants of: B1; assay: self-cleavage kobs at 160 uM GlcN6P; higher = faster cleavage; RNA array
In short: (§1)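 Tracking of barcoded ribozyme variants used a hybridised Cy3 probe at 37 °C, after in situ transcription by E. coli RNA polymerase on sequenced MiSeq chips. The flowed solution held 40 μM to 10 mM glucosamine-6-phosphate in HEPES/KCl/Mg(OAc)2 buffer, and imaging ran over ~14 h. kobs was taken from exponential decay fits of normalised per-tile medians, and kcat and KM from weighted Michaelis–Menten fits.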

glucosamine-6-phosphate [2] = variants of: B1; assay: self-cleavage kobs at 640 uM GlcN6P; higher = faster cleavage; RNA array
In short: as §1

glucosamine-6-phosphate [3] = variants of: B1; assay: self-cleavage kobs at 2500 uM GlcN6P; higher = faster cleavage; RNA array
In short: as §1

glucosamine-6-phosphate [4] = variants of: B1; assay: self-cleavage kobs at 10000 uM GlcN6P; higher = faster cleavage; RNA array
In short: as §1

Row | Variant | self-cleavage kobs at 160 uM GlcN6P (glucosamine-6-phosphate [1]) | self-cleavage kobs at 640 uM GlcN6P (glucosamine-6-phosphate [2]) | self-cleavage kobs at 2500 uM GlcN6P (glucosamine-6-phosphate [3]) | self-cleavage kobs at 10000 uM GlcN6P (glucosamine-6-phosphate [4])
1 | C58A U69A | 4.65e-05 ± 2.2e-05 s⁻¹ | 9.55e-05 ± 2.9e-05 s⁻¹ | 0.000101 ± 3.1e-05 s⁻¹ | –
2 | G51U U55G C58G C61G | 3.64e-05 ± 1.6e-05 s⁻¹ | – | – | –
3 | U47C U49A | < 1e-05 s⁻¹ | – | < 1e-05 s⁻¹ | < 1e-05 s⁻¹
4 | G32C G51C C68U | < 1e-05 s⁻¹ | – | < 1e-05 s⁻¹ | –
5 | G29C G41C G60A | < 1e-05 s⁻¹ | < 1e-05 s⁻¹ | < 1e-05 s⁻¹ | < 1e-05 s⁻¹
6 | C16U G29C G44U C67G | 0.000224 ± 0.0001 s⁻¹ | – | – | –
7 | C34A U45G G66U U69G | < 1e-05 s⁻¹ | < 1e-05 s⁻¹ | < 1e-05 s⁻¹ | –
8 | A15G U55G C71G | 0.00025 ± 5.3e-05 s⁻¹ | 0.000408 ± 9.6e-05 s⁻¹ | 0.000866 ± 0.00028 s⁻¹ | –
9 | U49G G60C | < 1e-05 s⁻¹ | < 1e-05 s⁻¹ | < 1e-05 s⁻¹ | –
10 | U31A A33G | < 1e-05 s⁻¹ | < 1e-05 s⁻¹ | – | < 1e-05 s⁻¹
11 | C50A C67U C71G | 4.46e-05 ± 2.1e-05 s⁻¹ | 0.000107 ± 2.5e-05 s⁻¹ | – | –
12 | A42C G51U A53C C71G | < 1e-05 s⁻¹ | – | – | –
13 | U46C A53G U54C | 0.000138 ± 2.9e-05 s⁻¹ | 0.000673 ± 0.00011 s⁻¹ | 0.00116 ± 0.00021 s⁻¹ | –
14 | U30C U31G C50G C70G | 0.000158 ± 4.4e-05 s⁻¹ | 0.000289 ± 0.0001 s⁻¹ | 0.00026 ± 5.8e-05 s⁻¹ | –
15 | U54A G66A | 0.00093 ± 0.00023 s⁻¹ | 0.00513 ± 0.00085 s⁻¹ | 0.00986 ± 0.0017 s⁻¹ | –
16 | U31A G43A | < 1e-05 s⁻¹ | < 1e-05 s⁻¹ | – | 2.99e-05 ± 9.3e-06 s⁻¹
17 | A36C G41C C50U A64U C68A | < 1e-05 s⁻¹ | < 1e-05 s⁻¹ | < 1e-05 s⁻¹ | < 1e-05 s⁻¹
18 | G44U C50A | < 1e-05 s⁻¹ | < 1e-05 s⁻¹ | < 1e-05 s⁻¹ | < 1e-05 s⁻¹
19 | U31G C68G | 0.000192 ± 8.2e-05 s⁻¹ | – | 6.11e-05 ± 1.1e-05 s⁻¹ | 3.16e-05 ± 8.9e-06 s⁻¹
20 | A39U C61U G62U | < 1e-05 s⁻¹ | < 1e-05 s⁻¹ | < 1e-05 s⁻¹ | –
21 | G38U U65G C70U | < 1e-05 s⁻¹ | < 1e-05 s⁻¹ | – | –
22 | G32U G41A U47G C61A G62U | < 1e-05 s⁻¹ | < 1e-05 s⁻¹ | < 1e-05 s⁻¹ | –
23 | G29C G44A G60A A64G | < 1e-05 s⁻¹ | < 1e-05 s⁻¹ | < 1e-05 s⁻¹ | –

Row | Variant | self-cleavage kobs at 160 uM GlcN6P (glucosamine-6-phosphate [1]) | self-cleavage kobs at 640 uM GlcN6P (glucosamine-6-phosphate [2]) | self-cleavage kobs at 2500 uM GlcN6P (glucosamine-6-phosphate [3]) | self-cleavage kobs at 10000 uM GlcN6P (glucosamine-6-phosphate [4])
24 | U30C A36G | < 1e-05 s⁻¹ | – | – | < 1e-05 s⁻¹
25 | A39G G63U | < 1e-05 s⁻¹ | < 1e-05 s⁻¹ | < 1e-05 s⁻¹ | < 1e-05 s⁻¹
26 | A15G G51C | < 1e-05 s⁻¹ | < 1e-05 s⁻¹ | < 1e-05 s⁻¹ | < 1e-05 s⁻¹
27 | G40A C67G | < 1e-05 s⁻¹ | < 1e-05 s⁻¹ | – | –
28 | U30A G32C G62A | < 1e-05 s⁻¹ | – | < 1e-05 s⁻¹ | –
29 | G32U U54G | 7.28e-05 ± 2.7e-05 s⁻¹ | 0.000164 ± 5.1e-05 s⁻¹ | 0.000272 ± 6.1e-05 s⁻¹ | 0.000903 ± 0.00012 s⁻¹
30 | G63A C70G C71G | 5.57e-05 ± 1.4e-05 s⁻¹ | 4.83e-05 ± 1.9e-05 s⁻¹ | – | –
31 | C34G G40U G62C | < 1e-05 s⁻¹ | – | – | –
32 | G40U C61G | < 1e-05 s⁻¹ | < 1e-05 s⁻¹ | – | < 1e-05 s⁻¹
33 | U57G U69G | 8.11e-05 ± 1.7e-05 s⁻¹ | 0.000113 ± 2.8e-05 s⁻¹ | 4.87e-05 ± 1.6e-05 s⁻¹ | –
34 | G35U U69A | < 1e-05 s⁻¹ | < 1e-05 s⁻¹ | < 1e-05 s⁻¹ | –
35 | U31C A64U U65A | < 1e-05 s⁻¹ | < 1e-05 s⁻¹ | – | –
36 | G29A U47G A53G | 6.62e-05 ± 2e-05 s⁻¹ | 0.000173 ± 3.2e-05 s⁻¹ | 0.000477 ± 0.00013 s⁻¹ | –
37 | G37A G51A C71A | < 1e-05 s⁻¹ | – | < 1e-05 s⁻¹ | –
38 | A39G U65C | 5.26e-05 ± 2.5e-05 s⁻¹ | 0.000513 ± 0.00015 s⁻¹ | 0.00163 ± 0.0005 s⁻¹ | –
39 | C50A G51C U55C G60U | < 1e-05 s⁻¹ | – | – | < 1e-05 s⁻¹
40 | G38U U56C U65A | < 1e-05 s⁻¹ | – | < 1e-05 s⁻¹ | < 1e-05 s⁻¹
41 | G41C A48G G63U | < 1e-05 s⁻¹ | < 1e-05 s⁻¹ | < 1e-05 s⁻¹ | –
42 | G38A G40U | < 1e-05 s⁻¹ | < 1e-05 s⁻¹ | < 1e-05 s⁻¹ | < 1e-05 s⁻¹
43 | C61A A64C | < 1e-05 s⁻¹ | < 1e-05 s⁻¹ | < 1e-05 s⁻¹ | < 1e-05 s⁻¹
44 | A15U C34U C50G | 0.000153 ± 3.2e-05 s⁻¹ | – | 0.000132 ± 3.4e-05 s⁻¹ | –
45 | C34A G41C | < 1e-05 s⁻¹ | < 1e-05 s⁻¹ | < 1e-05 s⁻¹ | < 1e-05 s⁻¹
